Data published in the supplement of paper PMC10567573.

B1: SCNN1D (parent)
chain: IRVMVHGRNHTPFLGHHSFSVRPG
B2: C2CD2L (parent)
chain: LTLKVLRSSSCGDTELLGQATLPV

Variants of: B1
Test: protein stability index of a GFP-peptide fusion (GPS, HEK-293T) (PSI 1-6); higher = more stable
Details: c terminus: a fixed tail appended
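Note: lentivirally expressed fusions sorted by FACS into six bins by GFP to DsRed ratio, PSI derived from sequencing read proportions per bin multiplied by bin number.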

Variant	protein stability index
IRVMVHKRNHTPFLGHHSFSVRPG [G7K]	2.48
IRVMVHTRNHTPFLGHHSFSVRPG [G7T]	1.92
IRFMVHGRNHTPFLGHHSFSVRPG [V3F]	1.93
IRTMVHGRNHTPFLGHHSFSVRPG [V3T]	2.2
IRYMVHGRNHTPFLGHHSFSVRPG [V3Y]	2.43
IRVMVHGRNVTPFLGHHSFSVRPG [H10V]	3.51
SRVMVHGRNHTPFLGHHSFSVRPG [I1S]	3.19
HRVMVHGRNHTPFLGHHSFSVRPG [I1H]	2.74
TRVMVHGRNHTPFLGHHSFSVRPG [I1T]	2.62
IRVMVQGRNHTPFLGHHSFSVRPG [H6Q]	3.67
IRVMVEGRNHTPFLGHHSFSVRPG [H6E]	2.27
IRVMVHGRNHTGFLGHHSFSVRPG [P12G]	4.32
IRVMSHGRNHTPFLGHHSFSVRPG [V5S]	1.21
IRVMDHGRNHTPFLGHHSFSVRPG [V5D]	1.1
IRVMVHGRNHTPFLGHLSFSVRPG [H17L]	3.67
IRVMVHGRNHTPFLGHHSFSVMPG [R22M]	3.3
IRVMVHGRNHTPNLGHHSFSVRPG [F13N]	1.77
IRVMVHGRNHTPFLGHHRFSVRPG [S18R]	4.09
IRVMVHGRNHTPFLGHHWFSVRPG [S18W]	4.89

Variants of: B2
Test: as above
Details: c terminus: a fixed tail appended

Variant	protein stability index
LTLKVLRSSSCGDTELLGQATLPG [V24G]	2.02
LTLKVLRSSSCGDTELLGQATLPR [V24R]	3.59
LTLKVLRSSSCGDTELLGQATLPP [V24P]	2.41
LTLKVLRSSSCGDTELLGQATLPQ [V24Q]	1.82
LTLKVLRSSSCGDTELLGQATLPM [V24M]	4.58
LTLKVLRSSSCGDTELLGQATLPH [V24H]	1.37
LTLKVLRSSSCGDTELLGQATLPD [V24D]	1.64
LTLKVLRSSSCGDTELLGQATLPE [V24E]	1.54
LTLKVLRSSSCGDTELLGQATLPA [V24A]	2.59
LTLKVLRSSSCGDTELLGQATLPK [V24K]	1.85
LTLKVLRSSSCGDTELLGQATLPN [V24N]	1.92
LTLKVLRSSSCGDTELLGQATLPS [V24S]	1.98
LTLKVLRSSSCGDTELLGQATLPF [V24F]	2.7
LTLKVLRSSSCGDTELLGQATLPT [V24T]	1.81
LTLKVLRSSSCGDTELLGIATLPV [Q19I]	4.42
LTLKVLRSSSCGDTELLGVATLPV [Q19V]	1.43
LTLKVLRSSSCGDTELLGCATLPV [Q19C]	4.52
LTLKVLRSSSCGDTELLGHATLPV [Q19H]	2.94
LTLKVLRSSSCGDTELLGMATLPV [Q19M]	3.83
LTLKVLRSSSCGDTELLGYATLPV [Q19Y]	3.56
LTLKVLRSSSCGDTELLGGATLPV [Q19G]	1.91
LTLKVLRSSSCGDTELLGDATLPV [Q19D]	1.61
LTLKVLRSSSCGDTELLGPATLPV [Q19P]	2.06
LTLKVLRSSSCGDTELLGKATLPV [Q19K]	2.78
LTLKVLRSSSCGDTELLGFATLPV [Q19F]	3.05

Variant	protein stability index
LTLKVLRSSSCGDTELLGNATLPV [Q19N]	3.21
LTLKVLRSSSCGDTELLGWATLPV [Q19W]	3.5
LTLKVLRSSSCGDTELLGTATLPV [Q19T]	1.59
LTLKVLRSSSCGDTELLGEATLPV [Q19E]	2.86
LTLKVLRSSSCGDTELLGSATLPV [Q19S]	2.79
LTLKVLRSSSCGDTELLGQATLCV [P23C]	3.55
LTLKVLRSSSCGDTELLGQATLAV [P23A]	3.27
LTLKVLRSSSCGDTELLGQATLFV [P23F]	1.57
LTLKVLRSSSCGDTELLGQATLGV [P23G]	4.54
LTLKVLRSSSCGDPELLGQATLPV [T14P]	2.74
LTLKVLRSSSCGDHELLGQATLPV [T14H]	2.47
LTLKVLRSSSCGDQELLGQATLPV [T14Q]	1.95
LTLKVLRSSSCGDEELLGQATLPV [T14E]	2.58
LTLKVLRSSSCGDCELLGQATLPV [T14C]	1.79
LTLKVLRSSSCGDAELLGQATLPV [T14A]	3.11
LTLKVLRSSSCGDDELLGQATLPV [T14D]	2.2
LTLKVLRSSSCGDKELLGQATLPV [T14K]	1.04
LTLKVLRSSSCGDRELLGQATLPV [T14R]	2.06
LTLKVLRSSSCGDSELLGQATLPV [T14S]	1.8
LTLKVLRSSSCGDNELLGQATLPV [T14N]	1.91
LTLKVLRSSSCGDMELLGQATLPV [T14M]	2.03
LTLKVLRSSSCGDGELLGQATLPV [T14G]	3.33
LTLKVLRSSSCGDYELLGQATLPV [T14Y]	3.11
LTLKVLRSSSCGDTELLGQATMPV [L22M]	1.56
LTLKVLRSSSCGDTELLGQATIPV [L22I]	2.36

Variant	protein stability index
LTLKVLRSSSCGDTELLGQATGPV [L22G]	1.75
LTLKVLRSSSCGDTELLGQATPPV [L22P]	1.87
LTLKVLRSSSCGDTELLGQATYPV [L22Y]	3.26
LTLKVLRSSSCGDTELLGQATSPV [L22S]	1.61
LTLKVLRSSSCGDTELLGQATNPV [L22N]	2.32
LTLKVLRSSSCGDTELLGQATKPV [L22K]	1.97
LTLKVLRSSSCGDTELLGQATHPV [L22H]	1.54
LTLKVLRSSSCGDTELLGQATTPV [L22T]	1.75
LTLKVLRSSSCGDTELLGQATWPV [L22W]	2.21
LTLKVLRSSSCGDTELLGQATVPV [L22V]	2.75
LTLKVLRSSSCGDTELLGQATCPV [L22C]	2.52
LTLKVLRSSSCGDTELLGQATRPV [L22R]	1.6
LTLKVLRSSSCGDTELLGQATAPV [L22A]	2.46
LTLKVLRSSSCGDTELLGQATQPV [L22Q]	1.28
LTLKVLRSSSCGDTELLGQATEPV [L22E]	1.74
LTLKVLRSSSCGDTELLGQATDPV [L22D]	2.67
LTLKVLRSSSCGDTALLGQATLPV [E15A]	3.85
LTLKVLRSSSCGDTLLLGQATLPV [E15L]	3.22
LTLKVLRSSSCGDTTLLGQATLPV [E15T]	2.83
LTLKVLRSSSCGDTQLLGQATLPV [E15Q]	2.47
LTLKVLRSSSCGDTNLLGQATLPV [E15N]	3.3
LTLKVLRSSSCGDTYLLGQATLPV [E15Y]	2.19
LTLKVLRSSSCGDTILLGQATLPV [E15I]	3.24
LTLKVLRSSSCGDTFLLGQATLPV [E15F]	3.12
LTLKVLRSSSCGDTPLLGQATLPV [E15P]	2.61
